Data on one molecule can be found in patent EP4086281A1 (China Immunotech (Beijing) Biotechnology Co., Ltd, dated 2022).

The test deals with T1, CD19 expressed by Raji cells (human lymphoma cell line) (human, UniProt P15391 20-556).
T1 construct: whole, on cells; On intact Raji cells in flow cytometry and co-culture; In the western blot it is the denatured protein of a Raji lysate (band of 95kD); also called CD19 protein in the Raji cells
T1 sequence (looked up): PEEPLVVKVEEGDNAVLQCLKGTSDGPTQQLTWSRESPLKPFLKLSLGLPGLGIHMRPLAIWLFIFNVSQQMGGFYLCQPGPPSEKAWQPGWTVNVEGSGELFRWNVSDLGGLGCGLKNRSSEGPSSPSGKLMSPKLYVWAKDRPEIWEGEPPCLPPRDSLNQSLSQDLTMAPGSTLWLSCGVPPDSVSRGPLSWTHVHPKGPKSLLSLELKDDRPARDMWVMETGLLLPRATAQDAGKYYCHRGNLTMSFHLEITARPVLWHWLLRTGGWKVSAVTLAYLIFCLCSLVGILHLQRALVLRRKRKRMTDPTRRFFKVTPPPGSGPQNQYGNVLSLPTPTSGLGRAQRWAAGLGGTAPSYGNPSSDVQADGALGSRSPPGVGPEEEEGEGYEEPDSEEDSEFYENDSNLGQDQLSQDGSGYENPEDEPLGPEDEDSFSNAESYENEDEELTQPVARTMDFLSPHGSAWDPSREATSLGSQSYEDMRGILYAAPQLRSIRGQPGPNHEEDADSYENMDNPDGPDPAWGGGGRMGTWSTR
The test is described as follows: flow cytometry on Raji cells, antibody titrated from 0 to 375 nM, curve fitted with GraphPad. (In general: In flow cytometry, cells or beads pass a laser one at a time.)

B1: monoclonal antibody 334 targeting CD19 (hybridoma CGMCC No. 17095) (antibody, V domains shown)
VH: QVQLQQSGAELVRPGASVKLSCKALGFIFTDYEIHWVKQTPVHGLEWIGAFHPGSGGSAYNQKFKGKATLTADKSSSTAYMELSSLTFEDSAVYHCTRQLGPDWGQGTLVTVS
VL: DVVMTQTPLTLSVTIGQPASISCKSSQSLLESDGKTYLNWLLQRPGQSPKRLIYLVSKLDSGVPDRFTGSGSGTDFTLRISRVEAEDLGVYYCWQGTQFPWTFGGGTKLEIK
notes: it is a hybridoma antibody detected with anti-mouse secondary antibodies
By Kd is commonly meant the constant that tells how readily two partners part at equilibrium. B1 returned a Kd of 1.53 nM.
